According to publication PMC4933465:

Legend:
[1] = target: Link_TSG6 (recombinant Link module from human TSG-6) (human) (UniProt P98066); test: SPR; Link_TSG6 amine-coupled to a C1 chip (800–1000 RU), chemokine as analyte; BIAcore 3000; 10 mM HEPES, 150 mM NaCl, 0.05% Tween 20, pH 7.4; 40 μl/min; 1:1 Langmuir model; apparent affinities
[2] = target: Biotinylated CCL21 (UniProt O00585)
[3] = target: Biotinylated CXCL4
[4] = target: CCL2 (UniProt P13500)
[5] = target: CCL7 (UniProt P80098)
CCL7, sequence (P80098 24-99): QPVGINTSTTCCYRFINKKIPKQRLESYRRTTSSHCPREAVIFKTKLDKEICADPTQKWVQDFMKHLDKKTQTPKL

Link_TSG6 (recombinant Link module from human TSG-6) (human), sequence (P98066 36-133): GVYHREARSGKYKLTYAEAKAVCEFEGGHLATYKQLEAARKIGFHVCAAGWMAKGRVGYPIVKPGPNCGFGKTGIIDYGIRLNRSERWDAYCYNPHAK
Link_TSG6 (recombinant Link module from human TSG-6), sequence (P98066 36-133): as above
CCL2, sequence (P13500 24-99): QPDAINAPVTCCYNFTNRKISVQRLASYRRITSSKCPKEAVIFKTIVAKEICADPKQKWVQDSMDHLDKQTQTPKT
Biotinylated CCL21, sequence (O00585 24-134): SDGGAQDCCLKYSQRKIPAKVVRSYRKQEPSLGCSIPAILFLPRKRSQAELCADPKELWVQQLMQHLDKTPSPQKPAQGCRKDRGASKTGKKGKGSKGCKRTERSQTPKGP

## CXCL4 (ligand)
[1]
  Kd: 3.9 nM
  koff: 0.0014 s⁻¹
  kon: 360000 M⁻¹ s⁻¹

## Link_TSG6 (recombinant Link module from human TSG-6) (from UniProt P98066 36-133) (domain or fragment)
[2]
  accumulation of biotinylated CCL21 (50 nM) on EaHY926 endothelial cells after pre-incubation with Link TSG6 at a 1:1 molar ratio (% of chemokine alone): 50
[3]
  accumulation of biotinylated CXCL4 (10 nM) on EaHY926 endothelial cells after pre-incubation with a 5-fold molar excess of Link TSG6 (% of chemokine alone): 51
[4]
  accumulation of CCL2 (50 nM) on EaHY926 endothelial cells after pre-incubation with Link TSG6 at 1:1 to 5:1 molar ratio (∼75 to ∼55% of chemokine alone) (% of chemokine alone): 75
[5]
  accumulation of CCL7 (50 nM) on EaHY926 endothelial cells after pre-incubation with Link TSG6 at a 1:1 molar ratio (% of chemokine alone): 50
